From patent US20260242730A1 (POINTLOMA BIOSCIENCES, published 2026)

T1: recombinant human TROP2 protein (human, UniProt P09758 27-274)
T1 chain: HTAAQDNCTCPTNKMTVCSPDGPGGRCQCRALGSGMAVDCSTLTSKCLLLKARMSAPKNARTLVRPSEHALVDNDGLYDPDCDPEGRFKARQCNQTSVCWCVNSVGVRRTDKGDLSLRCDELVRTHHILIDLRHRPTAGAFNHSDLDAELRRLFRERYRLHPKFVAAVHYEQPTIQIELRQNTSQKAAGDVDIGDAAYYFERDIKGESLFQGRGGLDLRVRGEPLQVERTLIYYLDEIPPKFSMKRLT

T2: human TROP2 (antigen of panning and clone screening) (human, UniProt P09758 27-274, limits assumed)
T2 construct: also called human TROP2-His protein; TROP2-expressing CHOK1 cells
T2 sequence (looked up): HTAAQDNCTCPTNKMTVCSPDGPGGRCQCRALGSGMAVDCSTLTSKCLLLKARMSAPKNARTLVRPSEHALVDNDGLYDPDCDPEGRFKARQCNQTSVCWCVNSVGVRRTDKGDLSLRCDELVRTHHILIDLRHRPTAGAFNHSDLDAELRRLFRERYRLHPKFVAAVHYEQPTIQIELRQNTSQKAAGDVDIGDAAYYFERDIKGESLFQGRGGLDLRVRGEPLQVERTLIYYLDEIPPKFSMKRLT


Target: T1, recombinant human TROP2 protein
Assay: binding of TROP2 protein to binder-expressing γδ T cells

| EC50 | Binder |
| --- | --- |
| 3.43 nM | TROP2 CAR with anti-TROP2 VHH #TP2, on γδ T cells (other) EVQLVESGGGLAQPGGSLRLSCAASGFTFSTYAMSWARQAPGKGLEWVSGIYADGSGTYYADSVKGRFTISRDNAKNTLYLQMNSLKPEDTALYYCAQGYSDYDRRLGEYDYWGQGTQVTVSSTTTPAPRPPTPAPTIASQPLSLRPEACRPAAGGAVHTRGLDFACDIYIWAPLAGTCGVLLLSLVITLYCKRGRKKLLYIFKQPFMRPVQTTQEEDGCSCRFPEEEEGGCELRVKFSRSADAPAYQQGQNQLYNELNLGRREEYDVLDKRRGRDPEMGGKPRRKNPQEGLYNELQKDKMAEAYSEIGMKGERRRGKGHDGLYQGLSTATKDTYDALHMQALPPR |
| 17.7 nM | TROP2 CAR with anti-TROP2 VHH #TP6, on γδ T cells (other) QLQLVESGGGLVQPGGSLRLSCAASGTLDYWTVGWFRQAPGKEREGVSCISSSDSSTYYADSVKGRFTISRDNAKNTVYLQMNSLKPEDTAVYYCAAGSLGYCSRSTPQYEYDFWGQGTQVTVSSTTTPAPRPPTPAPTIASQPLSLRPEACRPAAGGAVHTRGLDFACDIYIWAPLAGTCGVLLLSLVITLYCKRGRKKLLYIFKQPFMRPVQTTQEEDGCSCRFPEEEEGGCELRVKFSRSADAPAYQQGQNQLYNELNLGRREEYDVLDKRRGRDPEMGGKPRRKNPQEGLYNELQKDKMAEAYSEIGMKGERRRGKGHDGLYQGLSTATKDTYDALHMQALPPR |

Second part, the binder before the results:

| Binder | EC50 |
| --- | --- |
| TROP2 CAR with anti-TROP2 VHH #TP9, on γδ T cells (other) QVQLVESGGGLVQPGGSLRLSCAASGFSLDYWAIAWFRQAPGKEREGVSCSGSRGSTHYADSVKGRFTISRDNAKNTVYLQMNSLKPEDAGVYYCAVGSTLYSLTPYEYDYWGQGTQVTVSSTTTPAPRPPTPAPTIASQPLSLRPEACRPAAGGAVHTRGLDFACDIYIWAPLAGTCGVLLLSLVITLYCKRGRKKLLYIFKQPFMRPVQTTQEEDGCSCRFPEEEEGGCELRVKFSRSADAPAYQQGQNQLYNELNLGRREEYDVLDKRRGRDPEMGGKPRRKNPQEGLYNELQKDKMAEAYSEIGMKGERRRGKGHDGLYQGLSTATKDTYDALHMQALPPR | 18.1 nM |
| TROP2 CAR with anti-TROP2 VHH #TP14, on γδ T cells (other) EVQVVESGGGLVQPGGSLRLSCAVSGFTLDWYAIGWFRQAPGKEHEGVACIDPSERSTYADPVKGRFTISRDNAKNTVHLQMNSLKPEDTAVYYCAADTLPCFFYGSMWPPPDNWGQGTQVTVSSTTTPAPRPPTPAPTIASQPLSLRPEACRPAAGGAVHTRGLDFACDIYIWAPLAGTCGVLLLSLVITLYCKRGRKKLLYIFKQPFMRPVQTTQEEDGCSCRFPEEEEGGCELRVKFSRSADAPAYQQGQNQLYNELNLGRREEYDVLDKRRGRDPEMGGKPRRKNPQEGLYNELQKDKMAEAYSEIGMKGERRRGKGHDGLYQGLSTATKDTYDALHMQALPPR | 3.65 nM |
| TROP2 CAR with anti-TROP2 VHH #TP12, on γδ T cells (other) QVQLVESGGGLVQPGGSLRLSCAASRFTLDYYAIGWIRQAPGKEREGVSCISSSGGSTNYADSVKGRFTISRDNAKNTVYLQMNSLKPEDTGVYYCAATTYACSGYVPRAYEYDYWGQGTQVTVSSTTTPAPRPPTPAPTIASQPLSLRPEACRPAAGGAVHTRGLDFACDIYIWAPLAGTCGVLLLSLVITLYCKRGRKKLLYIFKQPFMRPVQTTQEEDGCSCRFPEEEEGGCELRVKFSRSADAPAYQQGQNQLYNELNLGRREEYDVLDKRRGRDPEMGGKPRRKNPQEGLYNELQKDKMAEAYSEIGMKGERRRGKGHDGLYQGLSTATKDTYDALHMQALPPR | 14.4 nM |

Target: T2, human TROP2 (antigen of panning and …)
Assay: positive phage clones from panning on human TROP2-His protein or on TROP2-expressing CHOK1 cells, ELISA
Source text: After confirming successful immunization with TROP2 protein, PBMC was isolated and used for construction of a phage display library with the size of 2.42×10⁹ cfu. TROP2 VHH binders were isolated from the phage display library using solid phase panning on human TROP2-His protein and cell-based panning on the engineered, TROP2-expressing CHOK1 cells in two parallel discovery campaigns. […] Stringency was increased during successive rounds by decreasing antigen concentration, increasing the number and duration of washes, and/or changing the duration of selections. The positively identified phages were diluted and spread on a petri dish to grow single colonies. Individual phage clones were selected and amplified. […] After three rounds of screening on TROP2 CHOK1 cells, a total of 384 clones were selected, of which 163 clones were TROP2-specific as tested by ELISA. After sequencing the positive clones, 9 unique sequences were obtained based on amino acid sequences. In combination, a total of 20 unique sequences were identified.

| binding result | Binder |
| --- | --- |
| binds | anti-TROP2 #TP7 VHH (VHH) VHH: QLQLVESGGGLVQPGGSLRLSCAASGFSLEHWTIGWFRQAPGKEREGVSCISSSDASTYYADSVKGRFTISRDNAKKSVYLQMNSLKLEDTAVYYCAAGSLGYCSRSTPQYEYDYWGQGTQVTVSS |
| binds | anti-TROP2 #TP8 VHH (VHH) VHH: QLQLVESGGGLVQPGGSLRLSCAASGFTLDYWTIGWFRQAPGKEREGVSCVSSSGGITYYADSVKGRFTISRDNEKRTVYLQMNSLKPEDTAVYYCAAGSLGYCSRSTPQYEYDYWGQGTQVTVSS |
| binds | anti-TROP2 #TP20 VHH (VHH) VHH: EVQVVESGGGLVQPGGSLRLSCAASGNIKSTAVMGWHRQAPGKEREWVAIITTGEDRFSGDRLQYADSVKDRFTISRDNAKNTVYLQMNSLKPEDTAVYYCNVDVLYMADGRYARSEFWGQGTQVTVSS |
| binds | anti-TROP2 #TP14 VHH (VHH) VHH: EVQVVESGGGLVQPGGSLRLSCAVSGFTLDWYAIGWFRQAPGKEHEGVACIDPSERSTYADPVKGRFTISRDNAKNTVHLQMNSLKPEDTAVYYCAADTLPCFFYGSMWPPPDNWGQGTQVTVSS |
| binds | anti-TROP2 #TP17 VHH (VHH) VHH: EVQLVESGGGMVQPGGSLRLSCAFSGLTFSNYAMTWYRQAPGKERELVAGTPSPGGTTTYADSVKGRFTISRDNAEDTVYLQMNSLKPEDTAVYYCHARWMWPSDNAGMGYWGKGTLVTVSS |
| binds | anti-TROP2 #TP15 VHH (VHH) VHH: QVQLVESGGGLVQPGGSLRLSCAVSGDIFSFYSMGWYRQAPGEQRELVAHITSGGSTHYADSVKGRFTISRDNAKNTVYLQMNSPKPEDTAVYYCNADLDYWVDSMGPYWGQGTQVTVSS |
| binds | anti-TROP2 #TP13 VHH (VHH) VHH: EVQLVESGGGLVQPGGSLRLSCALSGFTKDYYGIGWFRQAPGKEREGVSCISVSGSSTNYADSVKGRFTISRDNAKNTVYLQMNSLKPEDTGVYYCAAAFMGSDYVVPEMSREYDYWGQGTQVTVSS |
| binds | anti-TROP2 #TP19 VHH (VHH) VHH: EVQVVESGGGLVQPGGSLRLSCAASRSVFNIAIMGWYRQAPGKQRELVASISATDVTSYADSVKGRFTISRDDAWNAVYLQMDSLKSEDTAVYYCNSYLLQQRVPWGQGTQVTVSS |
| binds | anti-TROP2 #TP6 VHH (VHH) VHH: QLQLVESGGGLVQPGGSLRLSCAASGTLDYWTVGWFRQAPGKEREGVSCISSSDSSTYYADSVKGRFTISRDNAKNTVYLQMNSLKPEDTAVYYCAAGSLGYCSRSTPQYEYDFWGQGTQVTVSS |

More lines, now with the values behind:

| Binder | binding result |
| --- | --- |
| anti-TROP2 #TP5 VHH (VHH) VHH: QLQLVESGGGLVQPGGSLKLSCAASGFTLDYWTIGWFRQAPGKEREGVSCISSSDGSTYYADSVKGRFTISRDNAKRTVNLQMNSLKPEDTAVYYCAAGSLGYCSRSTPQYEYDFWGQGTQVTVSS | binds |
| anti-TROP2 #TP9 VHH (VHH) VHH: QVQLVESGGGLVQPGGSLRLSCAASGFSLDYWAIAWFRQAPGKEREGVSCSGSRGSTHYADSVKGRFTISRDNAKNTVYLQMNSLKPEDAGVYYCAVGSTLYSLTPYEYDYWGQGTQVTVSS | binds |
| anti-TROP2 #TP10 VHH (VHH) VHH: QVQLVESGGGLVQPGGSLRLSCAASGFRLDHWAIGWFRQAPGKEREGVSCSGSDESTYYADSVKGRFTISRDNAKNTVYLQMNSLKPEDTGVYYCAVGSTWYSLTPYEYDYWGQGTQVTVSS | binds |
| anti-TROP2 #TP4 VHH (VHH) VHH: QLQLVESGGGLVQPGGSLRLSCAASGFTLDDYAMRWFRQAPGKAREGVSCISRSDGTTYYADSVKGRFTISRNNAENTVYLQMNSLKPEDTAVYYCAADSLGCNGYSDWGVDYWAKGTLVTVSS | binds |
| anti-TROP2 #TP12 VHH (VHH) VHH: QVQLVESGGGLVQPGGSLRLSCAASRFTLDYYAIGWIRQAPGKEREGVSCISSSGGSTNYADSVKGRFTISRDNAKNTVYLQMNSLKPEDTGVYYCAATTYACSGYVPRAYEYDYWGQGTQVTVSS | binds |
| anti-TROP2 #TP16 VHH (VHH) VHH: QVQLVESGGGLVQPGGSLRLSCAASGFAFSFYVMTWYRQAPGKQREQVAAITSYGGANYADSVKGRFTISRDNAKNTVYLQMNALTSEDTAVYSCNAHLGPYDYWGQGTQVTVSS | binds |
| anti-TROP2 #TP1 VHH (VHH) VHH: EVQVVESGGGLAQPGGSLRLSCAASGFWFSTYAMSWARQAPGKGLEWVSGIYADGSATYYADSVKGRFTISRDNAKNTLYLHMNSLKPEDTALYYCAQGYSDYDRRVGGYDYWGQGTQVTVSS | binds |
| anti-TROP2 #TP2 VHH (VHH) VHH: EVQLVESGGGLAQPGGSLRLSCAASGFTFSTYAMSWARQAPGKGLEWVSGIYADGSGTYYADSVKGRFTISRDNAKNTLYLQMNSLKPEDTALYYCAQGYSDYDRRLGEYDYWGQGTQVTVSS | binds |
| anti-TROP2 #TP18 VHH (VHH) VHH: QVQLVESGGGLVQPGGSLRLSCAASSSIFSIAIMGWYRQAPGKQRELVATISATDVTHYADSVKGRFTISRDDAWNAVYLQMDSLKAEDTAVYYCNSYLLQQRVPWGQGTQVTVSS | binds |
| anti-TROP2 #TP11 VHH (VHH) VHH: QVQLVESGGGLVQPGGSLRVSCAASGFRLDYYAIGWFRQAPGKEREGVSSINYSSGSTVYADSVKGRFTISRGNAKNTVYLQMNSLKPEDTAVYYCAVGTVVTSLAPYEYDYWGQGTQVTVSS | binds |
